Laboratory results: the supplement of paper PMC9112550, “Optimization of the antimicrobial peptide Bac7 by deep mutational scanning” (BMC Biology, 2022)

These sequences were tested on Escherichia coli TOP10 (assay: shrunken log2 fold change of peptide-encoding DNA abundance (4.5 h post-induction vs induction); higher = less antimicrobial activity (less host growth inhibition)). Settings: time post-induction: 4.5 h; library: site-saturation at positions 5, 18, 19, 20.
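Note: peptides expressed intracellularly from a pBAD plasmid library in pooled LB shake-flask culture, induced with 0.3% L-arabinose, DNA abundance read by NGS, three biological replicates, DESeq2 with apeglm shrinkage.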

Sequence | shrunken log2 fold change
RRIRKRPPRLPRPRPRPYNDPRP | -0.00691
RRIRDRPPRLPRPRPRPGALPRP | 0.191
RRIRLRPPRLPRPRPRPLCWPRP | 0.487
RRIRGRPPRLPRPRPRPNCYPRP | 0.183
RRIRHRPPRLPRPRPRPTPIPRP | 0.226
RRIRLRPPRLPRPRPRPFEIPRP | 0.0206
RRIRLRPPRLPRPRPRPFDDPRP | -0.00884
RRIRSRPPRLPRPRPRPPCNPRP | -0.21
RRIRCRPPRLPRPRPRPTASPRP | 0.266
RRIRFRPPRLPRPRPRPIMYPRP | -0.33
RRIRVRPPRLPRPRPRPYIWPRP | -0.504
RRIRGRPPRLPRPRPRPTHDPRP | 1.72
RRIRTRPPRLPRPRPRPDLRPRP | -0.0122
RRIRKRPPRLPRPRPRPFQKPRP | 0.0267
RRIRNRPPRLPRPRPRPYQMPRP | -0.246
RRIRRRPPRLPRPRPRPRSGPRP | 0.751
RRIRNRPPRLPRPRPRPWNNPRP | -0.15
RRIRVRPPRLPRPRPRPAMFPRP | -0.0685
RRIRARPPRLPRPRPRPKVLPRP | 0.269
RRIRVRPPRLPRPRPRPDAAPRP | 0.976
RRIRYRPPRLPRPRPRPYEQPRP | -0.0134
RRIRVRPPRLPRPRPRPWCYPRP | -0.366
RRIRMRPPRLPRPRPRPNICPRP | 0.021
RRIRPRPPRLPRPRPRPHDFPRP | -0.145
RRIRTRPPRLPRPRPRPKGNPRP | -0.403

Sequence | shrunken log2 fold change
RRIRNRPPRLPRPRPRPDSNPRP | -0.0886
RRIRRRPPRLPRPRPRPCERPRP | 0.137
RRIRNRPPRLPRPRPRPNVNPRP | -0.795
RRIRCRPPRLPRPRPRPVANPRP | 0.0866
RRIRTRPPRLPRPRPRPQHPPRP | 0.0586
RRIRERPPRLPRPRPRPNSNPRP | -0.828
RRIRERPPRLPRPRPRPRFVPRP | -0.373
RRIRPRPPRLPRPRPRPPAPPRP | 0.629
RRIRVRPPRLPRPRPRPHMSPRP | -0.405
RRIRQRPPRLPRPRPRPSTYPRP | -0.884
RRIRRRPPRLPRPRPRPNDEPRP | -0.0407
RRIRCRPPRLPRPRPRPYKGPRP | -0.153
RRIRTRPPRLPRPRPRPQPYPRP | -0.322
RRIRKRPPRLPRPRPRPWWHPRP | 0.047
RRIRNRPPRLPRPRPRPSECPRP | -0.272
RRIRTRPPRLPRPRPRPLQHPRP | -0.257
RRIRARPPRLPRPRPRPDLTPRP | 0.198
RRIRQRPPRLPRPRPRPWYIPRP | -0.0906
RRIRSRPPRLPRPRPRPTNRPRP | -0.362
RRIRHRPPRLPRPRPRPNCCPRP | 0.0161
RRIRSRPPRLPRPRPRPAYFPRP | -0.297
RRIRTRPPRLPRPRPRPDVDPRP | -0.0342
RRIRSRPPRLPRPRPRPMMMPRP | -0.83
RRIRERPPRLPRPRPRPKFHPRP | -0.554
RRIRDRPPRLPRPRPRPFATPRP | 0.271

Sequence | shrunken log2 fold change
RRIRHRPPRLPRPRPRPMTQPRP | -0.24
RRIRWRPPRLPRPRPRPCGPPRP | 0.183
RRIRWRPPRLPRPRPRPFMEPRP | -0.239
RRIRPRPPRLPRPRPRPDCLPRP | 0.0136
RRIRMRPPRLPRPRPRPRSKPRP | 0.907
RRIRERPPRLPRPRPRPQKWPRP | -0.473
RRIRLRPPRLPRPRPRPMYIPRP | -0.172
RRIRLRPPRLPRPRPRPTRRPRP | 0.298
RRIRVRPPRLPRPRPRPEEDPRP | 0.0704
RRIRSRPPRLPRPRPRPNCIPRP | -0.416
RRIRERPPRLPRPRPRPCYVPRP | -0.716
RRIRKRPPRLPRPRPRPTYTPRP | 0.475
RRIRQRPPRLPRPRPRPRPQPRP | 0.262
RRIRQRPPRLPRPRPRPWGNPRP | 0.0303
RRIRCRPPRLPRPRPRPEMLPRP | -0.077
RRIRMRPPRLPRPRPRPLWNPRP | -0.182
RRIRLRPPRLPRPRPRPGEDPRP | 0.121
RRIRHRPPRLPRPRPRPINVPRP | -1.14
RRIRGRPPRLPRPRPRPPRTPRP | 1.33
RRIRHRPPRLPRPRPRPLQIPRP | 0.0781
RRIRYRPPRLPRPRPRPVTVPRP | -0.302
RRIRKRPPRLPRPRPRPLSRPRP | 0.254
RRIRFRPPRLPRPRPRPLNPPRP | -0.1
RRIRFRPPRLPRPRPRPKEGPRP | 0.0546
RRIRSRPPRLPRPRPRPAPNPRP | 0.329

Sequence | shrunken log2 fold change
RRIRRRPPRLPRPRPRPEVQPRP | -0.00368
RRIRCRPPRLPRPRPRPVWQPRP | -0.063
RRIRLRPPRLPRPRPRPLVFPRP | -0.186
RRIRKRPPRLPRPRPRPNNAPRP | 0.243
RRIRIRPPRLPRPRPRPKGLPRP | 0.121
RRIRKRPPRLPRPRPRPAMNPRP | -0.0724
RRIRLRPPRLPRPRPRPASAPRP | 0.202
RRIRERPPRLPRPRPRPFARPRP | 0.102
RRIRARPPRLPRPRPRPGKGPRP | 0.158
RRIRDRPPRLPRPRPRPDYQPRP | 0.0708
RRIRWRPPRLPRPRPRPNLKPRP | -0.0669
RRIRGRPPRLPRPRPRPCAIPRP | 2.08
RRIRVRPPRLPRPRPRPMSTPRP | -0.268
RRIRSRPPRLPRPRPRPDRWPRP | 0.0855
RRIRDRPPRLPRPRPRPPPVPRP | 0.867
RRIRCRPPRLPRPRPRPHECPRP | -0.3
RRIRWRPPRLPRPRPRPKRQPRP | 0.167
RRIRNRPPRLPRPRPRPHNTPRP | -0.643
RRIRQRPPRLPRPRPRPQNFPRP | -0.0918
RRIRFRPPRLPRPRPRPFEMPRP | -0.0734
RRIRTRPPRLPRPRPRPTWCPRP | -0.178
RRIRARPPRLPRPRPRPDESPRP | 0.0602
RRIRRRPPRLPRPRPRPQPSPRP | 0.231
RRIRHRPPRLPRPRPRPWYIPRP | -0.549
RRIRCRPPRLPRPRPRPNDAPRP | -0.12

Sequence | shrunken log2 fold change
RRIRPRPPRLPRPRPRPGDGPRP | 0.979
RRIRERPPRLPRPRPRPITEPRP | -0.159
RRIRYRPPRLPRPRPRPAKMPRP | -0.329
RRIRGRPPRLPRPRPRPFVLPRP | -0.000308
RRIRSRPPRLPRPRPRPEWYPRP | 0.341
RRIRERPPRLPRPRPRPSPVPRP | -0.268
RRIRFRPPRLPRPRPRPHSRPRP | -0.112
RRIRVRPPRLPRPRPRPGKQPRP | 0.0812
RRIRHRPPRLPRPRPRPIHDPRP | -1.81
RRIRTRPPRLPRPRPRPMLNPRP | -0.253
RRIRGRPPRLPRPRPRPFFTPRP | 0.215
RRIRRRPPRLPRPRPRPFHHPRP | -0.0883
RRIRPRPPRLPRPRPRPNSPPRP | -0.255
RRIRPRPPRLPRPRPRPFKKPRP | -0.161
RRIRKRPPRLPRPRPRPMKWPRP | -0.0374
RRIRWRPPRLPRPRPRPRATPRP | 1.26
RRIRIRPPRLPRPRPRPGGGPRP | 0.659
RRIRDRPPRLPRPRPRPVRGPRP | 1
RRIRIRPPRLPRPRPRPHRRPRP | -0.056
RRIRNRPPRLPRPRPRPKDGPRP | -0.00992
RRIRYRPPRLPRPRPRPQIKPRP | -0.969
RRIRFRPPRLPRPRPRPGHWPRP | 0.0649
RRIRFRPPRLPRPRPRPPHFPRP | 0.341
RRIRDRPPRLPRPRPRPIIKPRP | -0.0129
RRIRQRPPRLPRPRPRPCPIPRP | 0.0347
